One substance from PMC10404741 can be followed below.

The target of the assay is protein-base BG505 trimer (BG505 DS-SOSIP-2G-3Mut-RnS7Mut) (HIV-1 (BG505)) (UniProt Q2N0S6). Kind of assay: SPR; 2G12 antibody immobilised on a CM5 chip (about 2,000 RU), HIV trimer loaded onto it; sCD4 injected at five concentrations (30-500 nM), single cycle, 50 uL/min; 10 mM HEPES pH 7.4, 150 mM NaCl, 3 mM EDTA, 0.05% P-20; Biacore T-200.

Consider “soluble construct of CD4 containing the first two domains (sCD4) (domain or fragment)”, for which the Kd (commonly the free concentration of one partner at which half of the binding sites on the other are occupied at equilibrium, for simple one-to-one binding) amounted to 1200 nM.
